Source: patent US20240148892A1 (DUALITY BIOLOGICS SUZHOU, published 2024)
Values belong to the binder of their own block, whether it stands above or below them.

Tests used:
[1] = molecular target: T1, Cynomolgus monkey B7-H3/CD276 protein, His tag (cynomolgus monkey); assay: SPR (Biacore 8K), antibody captured on anti-human Fc IgG, cynomolgus monkey B7H3 as analyte, 1:1 model
T1 construct: Bought protein; 49 kDa used in the SPR calculation; also called ACRO B73-C52Ha
Experimental: The affinity of antibodies for cynomolgus monkey B7H3 was determined using surface plasmon resonance (SPR). The affinity of antibodies for cynomolgus monkey B7H3 was determined by Biacore 8K. An activator was prepared by mixing 400 mM EDC and 100 mM NHS (GE) immediately prior to injection into the channel. The CMS sensor chip was activated for 420 seconds with the activator. Goat anti-human Fc IgG (30 μg/mL in 10 mM NaAc, pH 4.5) was then injected into the channel at a flow rate of 10 μL/min for 420 seconds. The chip was deactivated by 1 M ethanolamine hydrochloric acid. The antibodies diluted in running buffer (1×HBS-EP+) were injected into the channel at a flow rate of 10 μL/min for 30 seconds. […] Glycine (10 mM, pH 1.5) was injected as regeneration buffer after the dissociation phase.
The sensorgrams for the reference channel and the buffer channel were subtracted from the test sensorgrams. […] The molecular weight of the cynomolgus monkey B7H3 used in the calculation was 49 kDa.
The experimental data were fitted by a 1:1 binding model bundled with the Biacore 8K evaluation software.

[2] = molecular target: T2, cynomolgus monkey B7H3 on transfected FlpinCHO cells (cynomolgus monkey); assay: flow cytometry (FACS) on FlpinCHO cells transfected with cynomolgus monkey B7H3
T2 construct: whole, on cells; also called W3XX088-FlpinCHO.cPro1.pool
Experimental: FACS was used to detect the binding of antibodies to cynomolgus monkey B7H3. FlpinCHO cells were transfected with cynomolgus monkey B7H3 (W3XX088-FlpinCHO.cProl.pool) (1×10⁵ cells/well), and the transfected cells were incubated with various concentrations of antibodies (3.16-fold serially diluted with 1×DPBS/1% BSA from 50 nM to 0.0005 nM) in a volume of 100 μL/well in a refrigerator set to 4 ° C. for 1 h. Anti-human B7H3 reference antibody enoblituzumab (MacroGeneics) was used as a positive control. Human IgG1 isotype antibody was used as a negative control. After washing the cells with 1×DPBS/1% BSA, Alexa 647 goat anti-human antibody (diluted in a 1:500 ratio in 1×DPBS/1% BSA) was added. The cells were incubated in a refrigerator set to 4° C. for 0.5 h in the dark. The mean fluorescence intensity (MFI) of the cells was measured by a flow cytometry and analyzed by FlowJo. EC₅₀ values were calculated by four-parameter non-linear regression analysis using GraphPad Prism 7 software.

[3] = molecular target: T3, Human B7-2 protein, His Tag (human, UniProt P42081 24-247); assay: ELISA, B7 family protein immobilized on plate, serially diluted antibody
T3 construct: Bought protein; also called ACRO CD6-H5223; not shown: His tag
T3 sequence (looked up): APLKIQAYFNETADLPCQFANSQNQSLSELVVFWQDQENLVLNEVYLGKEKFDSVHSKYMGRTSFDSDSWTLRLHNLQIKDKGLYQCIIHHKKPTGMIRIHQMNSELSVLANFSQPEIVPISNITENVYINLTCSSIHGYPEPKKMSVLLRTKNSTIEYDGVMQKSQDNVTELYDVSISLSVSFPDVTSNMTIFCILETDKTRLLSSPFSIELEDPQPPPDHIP
Experimental: (§1) Human PD-Ll protein (see the table above), human B7-H2 protein, human B7-H3 protein, human B7-H4 protein, human B7-H5 protein, human B7-H6 protein, human B7-1 protein, human B7-2 protein, human PD-L2 protein, human B7-H7 protein, and human BTNL2 protein were separately immobilized on 96-well plates by incubation at 4° C. overnight. The 96-well plates were then blocked by incubation with 1% BSA in PBS at 37° C. for 1 h. After blocking, the 96-well plates were washed 3 times with PBST (PBS containing 0.05% Tween 20). […] After incubation, the 96-well plates were washed 3 times with PBST, incubated with a secondary antibody (see the table above) in binding buffer at 37° C. for 1 h, and then washed again. TMB was added for color development, and the reaction was stopped by 1 M H₂SO₄.

Human B7-H7, His Tag = molecular target: T4, Human B7-H7, His Tag (human, UniProt Q9UM44 23-344); assay: as above
T4 construct: Bought protein; also called human B7-H7 protein; ACRO B77-H52H5; not shown: His tag
T4 sequence (looked up): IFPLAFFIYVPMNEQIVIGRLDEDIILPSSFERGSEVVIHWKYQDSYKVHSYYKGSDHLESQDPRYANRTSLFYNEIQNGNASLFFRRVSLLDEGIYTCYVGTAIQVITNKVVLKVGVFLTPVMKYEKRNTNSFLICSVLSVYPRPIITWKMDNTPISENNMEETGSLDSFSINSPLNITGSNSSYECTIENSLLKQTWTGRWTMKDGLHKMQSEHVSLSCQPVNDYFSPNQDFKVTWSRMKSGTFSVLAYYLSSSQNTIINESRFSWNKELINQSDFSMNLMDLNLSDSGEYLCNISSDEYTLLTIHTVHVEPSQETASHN
Experimental: as §1

Human B7-H2, His Tag = molecular target: T5, Human B7-H2, His Tag (human, UniProt O75144 19-258); assay: as above
T5 construct: Bought protein; also called human B7-H2 protein; ACRO B72-H5221; not shown: His tag
T5 sequence (looked up): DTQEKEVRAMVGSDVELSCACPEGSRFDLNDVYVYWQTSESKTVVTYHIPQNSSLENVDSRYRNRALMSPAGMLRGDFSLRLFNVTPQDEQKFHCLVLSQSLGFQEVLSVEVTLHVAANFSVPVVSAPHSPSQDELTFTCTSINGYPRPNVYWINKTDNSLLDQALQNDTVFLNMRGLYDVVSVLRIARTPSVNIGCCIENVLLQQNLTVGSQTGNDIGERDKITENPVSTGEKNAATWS
Experimental: as §1

Human PD-L1, His Tag = molecular target: T6, Human PD-L1, His Tag (human, UniProt Q9NZQ7 19-238); assay: as above
T6 construct: Bought protein; also called human PD-L1 protein; ACRO PD1-H5229; not shown: His tag
Experimental: as §1

Human B7-H5, His Tag = molecular target: T7, Human B7-H5, His Tag (human, UniProt Q9H7M9 33-194); assay: as above
T7 construct: Bought protein; also called human B7-H5 protein; ACRO B75-H52H0; not shown: His tag
T7 sequence (looked up): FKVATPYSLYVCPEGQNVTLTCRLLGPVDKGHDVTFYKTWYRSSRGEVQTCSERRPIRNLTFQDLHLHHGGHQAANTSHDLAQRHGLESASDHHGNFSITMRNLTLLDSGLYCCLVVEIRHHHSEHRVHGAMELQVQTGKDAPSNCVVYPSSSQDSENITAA
Experimental: as §1

T6 sequence (Q9NZQ7 19-238 limits assumed): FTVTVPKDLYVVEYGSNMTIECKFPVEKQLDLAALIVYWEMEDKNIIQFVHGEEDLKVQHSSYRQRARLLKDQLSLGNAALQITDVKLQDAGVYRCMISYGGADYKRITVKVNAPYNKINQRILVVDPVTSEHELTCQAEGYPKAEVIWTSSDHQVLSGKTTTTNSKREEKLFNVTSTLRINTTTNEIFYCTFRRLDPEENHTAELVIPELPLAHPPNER

- Kd [1]: 0.441 nM
- koff [1]: 8.14e-05 s⁻¹
- kon [1]: 185000 M⁻¹ s⁻¹
- EC50 [2]: 9.58 nM
B1: Enoblituzumab (MacroGenics) (antibody, V domains shown)
VH: EVQLVESGGGLVQPGGSLRLSCAASGFTFSSFGMHWVRQAPGKGLEWVAYISSDSSAIYYADTVKGRFTISRDNAKNSLYLQMNSLRDEDTAVYYCGRGRENIYYGSRLDYWGQGTTVTVSS
VL: DIQLTQSPSFLSASVGDRVTITCKASQNVDTNVAWYQQKPGKAPKALIYSASYRYSGVPSRFSGSGSGTDFTLTISSLQPEDFATYYCQQYNNYPFTFGQGTKLEIKR

B2: W301088-1.145.16-z3-p1-uIgG1KV320 (antibody, V domains shown)
VH: QVQLQESGPGLVKPSQTLSLTCTVTDYSITGDYAWNWIRQHPGKGLEWIGYISYSGSTSYNPSLQSRVTISRDTSKNQFSLKLSSVTAADTAVYFCARSLGRRWYFVVWGQGTTVTVSS
VL: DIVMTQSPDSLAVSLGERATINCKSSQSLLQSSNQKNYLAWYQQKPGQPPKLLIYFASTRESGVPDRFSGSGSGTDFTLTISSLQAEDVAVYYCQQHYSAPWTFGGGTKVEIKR
notes: Humanized, PTM-removed (VL N027dQ) human IgG1 LALA kappa antibody; also called WBP301088; W301088-z3-p1
- binding result [3]: no binding
- binding result (Human B7-H7, His Tag): no binding
- binding result (Human B7-H2, His Tag): no binding
- binding result (Human PD-L1, His Tag): no binding
- binding result (Human B7-H5, His Tag): no binding
- Kd [1]: 0.0574 nM
- koff [1]: 3.02e-05 s⁻¹
- kon [1]: 527000 M⁻¹ s⁻¹
- EC50 [2]: 4.68 nM

- Kd [1]: 0.0564 nM
- koff [1]: 2.94e-05 s⁻¹
- kon [1]: 521000 M⁻¹ s⁻¹
- EC50 [2]: 5.25 nM
B3: W301088-1.145.16-xIgG1KV320 (antibody, V domains shown)
VH: DVQLQESGPGLVKPSQSLSLTCTVTDYSITGDYAWNWIRQFPGNKLEWMGYISYSGSTSYNPSLQSRISITRDTSKNQFFLQLNSVTSEDTATYFCARSLGRRWYFVVWGAGTTVTVSA
VL: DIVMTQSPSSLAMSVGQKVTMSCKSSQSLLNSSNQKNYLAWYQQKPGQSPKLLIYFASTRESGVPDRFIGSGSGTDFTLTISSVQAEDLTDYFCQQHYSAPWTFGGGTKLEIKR
